B1: mRNA 3'-end-processing protein YTH1 (Saccharomyces cerevisiae), Q06102 (parent)
chain: MSLIHPDTAKYPFKFEPFLRQEYSFSLDPDRPICEFYNSREGPKSCPRGPLCPKKHVLPIFQNKIVCRHWLRGLCKKNDQCEYLHEYNLRKMPECVFFSKNGYCTQSPDCQYLHIDPASKIPKCENYEMGFCPLGSSCPRRHIKKVFCQRYMTGFCPLGKDECDMEHPQFIIPDEGSKLRIKRDDEINTRKMDEEKERRLNAIINGEV
partner: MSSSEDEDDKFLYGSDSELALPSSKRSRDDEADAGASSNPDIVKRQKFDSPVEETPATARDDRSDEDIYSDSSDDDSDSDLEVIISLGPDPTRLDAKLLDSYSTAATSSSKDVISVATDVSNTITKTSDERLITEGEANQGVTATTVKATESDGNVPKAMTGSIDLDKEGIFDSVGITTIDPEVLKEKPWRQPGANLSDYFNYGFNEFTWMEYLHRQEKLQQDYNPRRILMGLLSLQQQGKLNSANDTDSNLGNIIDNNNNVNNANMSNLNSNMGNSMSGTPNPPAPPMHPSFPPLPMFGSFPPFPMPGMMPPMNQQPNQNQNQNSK

Variants of: B1
Conditions: with fip1_yeast FIP1, P45976

effect of a mutation on the interaction	Variant
decreasing interaction	MSLIHPDTAKYPFKFEPFLRQEYSFSLDPDRPICEFYNSREGPKSCPRGPLCPKKHVLPIFQNKIVCRHWLRGLCKKNDQCEYLHEYNLRKMPECVFFSKNGYCTQSPDCQYLHIDPASKIPKCENYEMRFCPLGSSCPRRHIKKVFCQRYMTGFCPLGKDECDMEHPQFIIPDEGSKLRIKRDDEINTRKMDEEKERRLNAIINGEV [G130R]

Reference: IntAct's records for PubMed 12626716
